Measurements published in US20170022287A1 (Chugai, published 2017).
Numbering of substitutions follows the chain as printed.

Legend:
[1] = biological target: full-length human CD137-Fc fusion protein (human); assay: ELISA, coated CD137-Fc protein 2 µg/mL, antibody 10 or 5 µg/mL; absorbance 620 nm divided by that of the uncoated well
Method: (§1) Fragmented human CD137-Fc fusion proteins were diluted to 2 μg/mL in an aqueous sodium carbonate solution adjusted to pH9.6. Fifty μL of a diluted fragmented human CD137-Fc fusion protein was added individually to each well of a Nunc MaxiSorp flat-bottom 96 well plate (Nunc). This was allowed to stand at 4° C. overnight or longer, and then the plate was allowed to stand at room temperature for one hour so that the plate has the same temperature as the room temperature. The solution containing the fragmented human CD137-Fc fusion protein was removed by tilting, and each well was washed three times with 300 μL of Wash buffer (TBS containing 0.1% Tween20, TaKaRa). Next, 150 μL of blocking buffer (TBS containing 2% BSA) was added to each well, and this was allowed to stand for one hour or more. The blocking buffer was removed by tilting, and each well was washed three times with Wash Buffer in a similar manner to an earlier step. Then, 50 μL of an antibody solution prepared in advance by dilution with TBS to 10 μg/mL or 5 μg/mL was added to each well. This was subjected to a speed of 600 rpm or so for one hour at room temperature to bind the antibody to the immobilized antigen. […] 100 μL of a secondary antibody solution produced by 1000-fold dilution with TBS containing 0.1% Tween20 was added to each well. For the secondary antibody, ANTIBODY ALKALINE PHOSPHATASE CONJUGATE HUMAN IMMUNOGLOBULIN ABSORBED Goat Anti-Human Kappa Alkaline Phosphate from BIOSOURCE was used in the case of antibodies carrying a Kappa chain, and Human Lambda Light Chain Antibody; Goat anti-Human Lambda Light Chain Antibody Alkaline Phosphatase Conjugated from BETHYL LABORATORIES INC. was used in the case of antibodies carrying a Lambda chain. […] Color development was performed using the BluePhos Microwell kit from KPL. After the chromogenic reaction was stopped using the AP stop solution from KPL, the absorbance was measured at 620 nm on an absorptiometer.

CRD1 [2] = biological target: T1, CRD1; assay: as above
T1 construct: also called fragmented human CD137-Fc fusion protein CRD1
T1 sequence (chain, as listed by the source limits assumed): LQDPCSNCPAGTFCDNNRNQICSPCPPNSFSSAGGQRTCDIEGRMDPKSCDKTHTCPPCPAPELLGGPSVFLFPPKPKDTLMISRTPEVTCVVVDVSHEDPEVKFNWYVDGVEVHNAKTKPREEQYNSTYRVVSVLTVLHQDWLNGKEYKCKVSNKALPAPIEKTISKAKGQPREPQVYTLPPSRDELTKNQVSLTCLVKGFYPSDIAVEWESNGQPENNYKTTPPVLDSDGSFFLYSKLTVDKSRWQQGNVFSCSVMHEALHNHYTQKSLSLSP
Method: as §1

CRD1-2 [3] = biological target: T2, CRD1-2; assay: as above
T2 construct: also called fragmented human CD137-Fc fusion protein CRD1-2
T2 sequence (chain, as listed by the source limits assumed): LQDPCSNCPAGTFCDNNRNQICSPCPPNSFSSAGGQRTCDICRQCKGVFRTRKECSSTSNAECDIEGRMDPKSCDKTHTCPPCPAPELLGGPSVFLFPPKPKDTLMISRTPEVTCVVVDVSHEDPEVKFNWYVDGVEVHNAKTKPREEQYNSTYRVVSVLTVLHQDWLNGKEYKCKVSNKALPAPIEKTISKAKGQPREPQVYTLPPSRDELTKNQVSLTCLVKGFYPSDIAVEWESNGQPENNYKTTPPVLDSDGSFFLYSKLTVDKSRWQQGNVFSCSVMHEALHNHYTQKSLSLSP
Method: as §1

CRD2-3 [4] = biological target: T3, CRD2-3; assay: as above
T3 construct: also called fragmented human CD137-Fc fusion protein CRD2-3
T3 sequence (chain, as listed by the source limits assumed): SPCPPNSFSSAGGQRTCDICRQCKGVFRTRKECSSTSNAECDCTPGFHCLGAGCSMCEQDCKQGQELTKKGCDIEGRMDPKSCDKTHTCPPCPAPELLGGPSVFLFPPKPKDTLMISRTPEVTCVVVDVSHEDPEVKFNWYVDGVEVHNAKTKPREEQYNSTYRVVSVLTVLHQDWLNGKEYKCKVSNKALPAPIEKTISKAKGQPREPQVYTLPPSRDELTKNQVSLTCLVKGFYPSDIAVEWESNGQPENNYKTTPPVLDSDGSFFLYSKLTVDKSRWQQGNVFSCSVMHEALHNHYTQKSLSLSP
Method: as §1

CRD3-4 [5] = biological target: T4, CRD3-4; assay: as above
T4 construct: also called fragmented human CD137-Fc fusion protein CRD3-4
T4 sequence (chain, as listed by the source limits assumed): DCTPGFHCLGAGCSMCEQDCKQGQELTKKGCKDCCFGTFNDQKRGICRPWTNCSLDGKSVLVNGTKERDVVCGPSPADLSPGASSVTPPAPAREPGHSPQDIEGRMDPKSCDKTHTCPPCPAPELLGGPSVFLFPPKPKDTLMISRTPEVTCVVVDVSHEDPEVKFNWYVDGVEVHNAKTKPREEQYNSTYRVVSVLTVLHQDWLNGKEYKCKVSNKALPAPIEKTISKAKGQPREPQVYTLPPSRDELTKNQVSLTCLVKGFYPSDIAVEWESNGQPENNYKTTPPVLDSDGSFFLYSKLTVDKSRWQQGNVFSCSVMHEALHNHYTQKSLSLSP
Method: as §1

CRD2-4 [6] = biological target: T5, CRD2-4; assay: as above
T5 construct: also called fragmented human CD137-Fc fusion protein CRD2-4
T5 sequence (chain, as listed by the source limits assumed): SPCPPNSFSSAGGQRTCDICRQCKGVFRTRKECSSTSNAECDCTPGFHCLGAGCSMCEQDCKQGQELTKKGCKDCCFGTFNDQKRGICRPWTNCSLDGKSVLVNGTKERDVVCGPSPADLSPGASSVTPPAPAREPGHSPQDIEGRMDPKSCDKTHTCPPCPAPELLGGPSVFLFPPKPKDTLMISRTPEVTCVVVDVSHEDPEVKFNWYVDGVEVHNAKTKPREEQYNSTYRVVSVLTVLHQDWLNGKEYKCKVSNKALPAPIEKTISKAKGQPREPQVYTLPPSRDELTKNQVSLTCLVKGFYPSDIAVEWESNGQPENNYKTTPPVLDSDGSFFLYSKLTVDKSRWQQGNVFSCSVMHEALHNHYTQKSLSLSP
Method: as §1

CRD1-3 [7] = biological target: T6, CRD1-3; assay: as above
T6 construct: also called fragmented human CD137-Fc fusion protein CRD1-3
T6 sequence (chain, as listed by the source limits assumed): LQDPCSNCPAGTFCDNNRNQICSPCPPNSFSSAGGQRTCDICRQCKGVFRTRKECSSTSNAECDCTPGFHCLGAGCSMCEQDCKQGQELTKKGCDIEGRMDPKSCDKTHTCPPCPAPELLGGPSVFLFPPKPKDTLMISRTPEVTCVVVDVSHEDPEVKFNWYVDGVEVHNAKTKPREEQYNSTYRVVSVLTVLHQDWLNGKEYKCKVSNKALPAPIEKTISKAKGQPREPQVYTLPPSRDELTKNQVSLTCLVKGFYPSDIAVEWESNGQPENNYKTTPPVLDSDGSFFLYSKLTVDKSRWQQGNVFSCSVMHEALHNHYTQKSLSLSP
Method: as §1

CRD2-3 [8] = biological target: T3, CRD2-3; assay: ELISA, coated CD137-Fc protein 2 µg/mL, antibody 10 or 5 µg/mL, absorbance 620 nm; Non (uncoated well) 0.1705
Method: as §1

[9] = biological target: full-length human CD137-Fc fusion protein (human); assay: as above
Method: as §1

CRD3-4 [10] = biological target: T4, CRD3-4; assay: as above
Method: as §1

CRD2-4 [11] = biological target: T5, CRD2-4; assay: as above
Method: as §1

CRD1 [12] = biological target: T1, CRD1; assay: as above
Method: as §1

CRD1-3 [13] = biological target: T6, CRD1-3; assay: as above
Method: as §1

CRD1-2 [14] = biological target: T2, CRD1-2; assay: as above
Method: as §1

CRD2-3 [15] = biological target: T3, CRD2-3; assay: ELISA, coated CD137-Fc protein 2 µg/mL, antibody 10 or 5 µg/mL, absorbance 620 nm; Non (uncoated well) 0.166
Method: as §1

[16] = biological target: full-length human CD137-Fc fusion protein (human); assay: as above
Method: as §1

CRD3-4 [17] = biological target: T4, CRD3-4; assay: as above
Method: as §1

CRD2-4 [18] = biological target: T5, CRD2-4; assay: as above
Method: as §1

CRD1 [19] = biological target: T1, CRD1; assay: as above
Method: as §1

CRD1-3 [20] = biological target: T6, CRD1-3; assay: as above
Method: as §1

CRD1-2 [21] = biological target: T2, CRD1-2; assay: as above
Method: as §1

mouse CD137 on T cells = mouse CD137 on T cells (mouse, UniProt P20334 24-256); assay: cell-based or functional assay
mouse CD137 on T cells, sequence (P20334 24-256): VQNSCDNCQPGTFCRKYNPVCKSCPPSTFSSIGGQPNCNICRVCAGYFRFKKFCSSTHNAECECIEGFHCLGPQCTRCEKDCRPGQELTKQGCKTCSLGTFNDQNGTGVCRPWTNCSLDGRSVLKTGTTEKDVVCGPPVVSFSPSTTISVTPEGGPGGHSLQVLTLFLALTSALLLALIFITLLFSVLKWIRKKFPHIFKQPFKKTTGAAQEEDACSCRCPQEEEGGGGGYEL

[22] = biological target: T7, mouse Fcγ receptor III extracellular domain with C-terminal His tag (mouse, UniProt P08508 31-215); assay: SPR (Biacore) kinetics, antibody captured on Protein L, mFcγR as analyte, 1:1 Langmuir model
T7 construct: extracellular domain; also called mFcγRIII; not shown: His tag at the C terminus
T7 sequence (looked up): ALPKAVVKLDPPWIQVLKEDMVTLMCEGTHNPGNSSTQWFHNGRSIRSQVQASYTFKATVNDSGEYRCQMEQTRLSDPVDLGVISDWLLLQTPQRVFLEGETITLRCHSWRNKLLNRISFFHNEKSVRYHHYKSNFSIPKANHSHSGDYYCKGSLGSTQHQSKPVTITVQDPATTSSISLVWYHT

full-length human CD137-Fc fusion protein (human), sequence (chain, as listed by the source limits assumed): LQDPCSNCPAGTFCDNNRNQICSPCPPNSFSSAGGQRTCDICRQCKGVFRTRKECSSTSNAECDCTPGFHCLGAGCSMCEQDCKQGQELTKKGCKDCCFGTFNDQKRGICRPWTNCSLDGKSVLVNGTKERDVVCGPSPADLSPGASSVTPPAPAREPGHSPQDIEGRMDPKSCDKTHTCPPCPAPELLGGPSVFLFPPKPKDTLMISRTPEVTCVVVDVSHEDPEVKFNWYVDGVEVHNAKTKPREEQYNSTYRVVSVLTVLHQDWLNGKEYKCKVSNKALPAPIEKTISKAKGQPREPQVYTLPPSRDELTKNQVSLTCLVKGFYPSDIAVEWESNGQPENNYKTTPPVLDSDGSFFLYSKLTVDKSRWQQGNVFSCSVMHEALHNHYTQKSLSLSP

B1: R12 (antibody, V domains shown)
VH: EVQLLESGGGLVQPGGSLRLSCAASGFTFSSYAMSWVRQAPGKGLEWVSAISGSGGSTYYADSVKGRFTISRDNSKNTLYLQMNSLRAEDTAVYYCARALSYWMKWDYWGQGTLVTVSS
VL: DIQMTQSPSSLSASVGDRVTITCRASQSISSYLNWYQQKPGKAPKLLIYAASSLQSGVPSRFSGSGSGTDFTLTISSLQPEDFATYYCQQFNGFPLTFGGGTKVEIK
notes: Synthetic library clone; Fab on phage in the phage ELISA
Ratio with respect to Non-Coating [1]: 1.1

B2: R13 (antibody, V domains shown)
VH: QVQLVESGGGLVQPGGSLRLSCAASGFTFSYYDIQWVRQAPGKGLEWVSSISPSGQSTYYRREVKGRFTISRDNSKNTLYLQMNSLRAEDTAVYYCARRTGREYGGGWYFDYWGQGTLVTVSS
VL: B1 VL with N92S, G93R
notes: as for B1
Ratio with respect to Non-Coating [1]: 0.4

B3: R8 (antibody, V domains shown)
VH: QVQLQESGPGLVKPSETLSLTCAVSGYSISSGYYWGWIRQPPGKGLEWIGSIYHSGSTYYNPSLKSRVTISVDTSKNQFSLKLSSVTAADTAVYYCARQHSFTRYYGYYYFDYWGQGTTVTVSS
VL: B1 VL with Q89L, F91S, N92D, G93S, F94I
notes: as for B1
Ratio with respect to Non-Coating (CRD1 [2]): 0.7
Ratio with respect to Non-Coating (CRD1-2 [3]): 0.5

B4: R11 (antibody, V domains shown)
VH: QVQLLESGGGLVQPGGSLRLSCAASGFTFSSYAMSWVRQAPGKGLEWVSAISGSGGSTYYADSVKGRFTISRDNSKNTLYLQMNSLRAEDTAVYYCARDKWYYYPALDYWGQGTLVTVSS
VL: B1 VL with N92S, G93R
notes: as for B1
Ratio with respect to Non-Coating [1]: 1

B5: R19 (antibody, V domains shown)
VH: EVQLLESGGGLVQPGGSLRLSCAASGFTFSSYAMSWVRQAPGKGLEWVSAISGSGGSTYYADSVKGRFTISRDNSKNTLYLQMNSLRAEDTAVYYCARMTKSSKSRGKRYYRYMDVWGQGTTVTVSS
VL: B1 VL with Q89L, F91V, N92Y, G93S, F94S
notes: as for B1
Ratio with respect to Non-Coating [1]: 0.9

B6: R16 (antibody, V domains shown)
VH: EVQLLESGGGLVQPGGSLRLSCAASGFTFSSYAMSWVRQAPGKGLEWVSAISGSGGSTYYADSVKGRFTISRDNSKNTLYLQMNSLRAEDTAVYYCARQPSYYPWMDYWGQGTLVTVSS
VL: B1 VL with G93N, F94Y
notes: as for B1
Ratio with respect to Non-Coating (CRD2-3 [4]): 14.9
Ratio with respect to Non-Coating [1]: 11.3
Ratio with respect to Non-Coating (CRD3-4 [5]): 15.4
Ratio with respect to Non-Coating (CRD2-4 [6]): 12.7
Ratio with respect to Non-Coating (CRD1 [2]): 1.7
Ratio with respect to Non-Coating (CRD1-3 [7]): 13.1
Ratio with respect to Non-Coating (CRD1-2 [3]): 1.6
ELISA color development level (CRD2-3 [8]): 2.54
ELISA color development level [9]: 1.93
ELISA color development level (CRD3-4 [10]): 2.63
ELISA color development level (CRD2-4 [11]): 2.17
ELISA color development level (CRD1 [12]): 0.286
ELISA color development level (CRD1-3 [13]): 2.24
ELISA color development level (CRD1-2 [14]): 0.269

B7: R17 (antibody, V domains shown)
VH: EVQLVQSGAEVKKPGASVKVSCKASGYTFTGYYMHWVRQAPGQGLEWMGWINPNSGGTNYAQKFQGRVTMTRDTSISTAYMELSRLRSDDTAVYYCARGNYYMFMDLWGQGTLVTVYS
VL: B1 VL with Q89L, N92T, G93S
notes: as for B1
ELISA color development level (CRD2-3 [15]): 2.44
ELISA color development level [16]: 1.34
ELISA color development level (CRD3-4 [17]): 2.47
ELISA color development level (CRD2-4 [18]): 1.92
ELISA color development level (CRD1 [19]): 0.197
ELISA color development level (CRD1-3 [20]): 2.05
ELISA color development level (CRD1-2 [21]): 0.169
Ratio with respect to Non-Coating (CRD2-3 [4]): 14.7
Ratio with respect to Non-Coating [1]: 8.1
Ratio with respect to Non-Coating (CRD3-4 [5]): 14.9
Ratio with respect to Non-Coating (CRD2-4 [6]): 11.6
Ratio with respect to Non-Coating (CRD1 [2]): 1.2
Ratio with respect to Non-Coating (CRD1-3 [7]): 12.4
Ratio with respect to Non-Coating (CRD1-2 [3]): 1

B8: R14 (antibody, V domains shown)
VH: B4 VH
VL: B1 VL with Q89L, F91V, N92Y, G93R, F94S
notes: as for B1
Ratio with respect to Non-Coating [1]: 0.9

B9: R15 (antibody, V domains shown)
VH: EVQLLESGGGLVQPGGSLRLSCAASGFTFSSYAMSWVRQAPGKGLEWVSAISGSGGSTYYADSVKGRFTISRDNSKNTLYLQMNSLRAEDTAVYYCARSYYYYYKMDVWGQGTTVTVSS
VL: B1 VL with N92V, G93R, F94H, L96P
notes: as for B1
Ratio with respect to Non-Coating [1]: 0.6

B10: 1D8VH-MB492/1D8VL-mk0 (antibody, mouse IgG1, kappa, V domains shown)
VH: QVQLKEAGPGLVQPTQTLSLTCTVSGFSLTSDGVHWIRQPPGKGLEWMGIIYYDGGTDYNSAIKSRLSISRDTSKSQVFLKINSLQTDDTAMYYCARIHFDYWGQGVMVTVSS
VL: DIVLTQSPTTIAASPGEKVTITCRASSSVSYMYWYQQKSGASPKLWIYDTSKLASGVPNRFSGSGSGTSYSLAINTMETEDAATYYCQQWSSTPLTFGSGTKLEIKR
specific activity, mouse IFN-γ in the supernatant of spleen cells (ELISA) (mouse CD137 on T cells): ~8 fold

B11: H237-mIgG1/MRAL-k0 (antibody)
heavy: QVQLQESGPGLVKPSETLSLTCAVSGHSISHDHAWSWVRQPPGEGLEWIGFISYSGITNYNPSLQGRVTISRDNSKNTLYLQMNSLRAEDTAVYYCARSLARTTAMDYWGEGTLVTVSSAKTTPPSVYPLAPGSAAQTNSMVTLGCLVKGYFPEPVTVTWNSGSLSSGVHTFPAVLQSDLYTLSSSVTVPSSTWPSETVTCNVAHPASSTKVDKKIVPRDCGCKPCICTVPEVSSVFIFPPKPKDVLTITLTPKVTCVVVDISKDDPEVQFSWFVDDVEVHTAQTQPREEQFNSTFRSVSELPIMHQDWLNGKEFKCRVNSAAFPAPIEKTISKTKGRPKAPQVYTIPPPKEQMAKDKVSLTCMITDFFPEDITVEWQWNGQPAENYKNTQPIMDTDGSYFVYSKLNVQKSNWEAGNTFTCSVLHEGLHNHHTEKSLSHSPGK
light: not shown
notes: Anti-human IL-6 receptor variable region H237 with mouse IgG1 constant region; copies: 2 + 2
Kd [22]: 282 nM
